# According to patent publication US20180155451A1 (published 2018):
# T1: FcγRIIb extracellular domain with C-terminal His tag (human, UniProt P31994 43-217)
# T1 construct: extracellular domain; soluble receptor expressed in FreeStyle293 cells, used as analyte in Biacore; also called FcgRIIb; 2b; not shown: His tag attached to the C terminus
# T1 sequence (looked up): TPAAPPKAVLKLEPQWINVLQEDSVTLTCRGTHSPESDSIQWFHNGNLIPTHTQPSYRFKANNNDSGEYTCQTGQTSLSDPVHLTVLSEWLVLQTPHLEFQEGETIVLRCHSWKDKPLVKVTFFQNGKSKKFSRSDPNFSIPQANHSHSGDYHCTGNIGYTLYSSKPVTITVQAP
# B1: GpH7-A5/GpH7-B3 variant P271_03V/GpL16-k0 (antibody, human IgG1, kappa)
# heavy 1: not shown
# heavy 2: not shown
# light: DIVMTQSPLSLPVTPGEPASISCQASESLVHSNRNTYLHWYLQKPGQSPQLLIYKVSNRFSGVPDRFSGSGSGTDFTLKISRVEAEDVGVYYCSQNTHVPPTFGQGTKVEIERTVAAPSVFIFPPSDEQLKSGTASVVCLLNNFYPREAKVQWKVDNALQSGNSQESVTEQDSKDSTYSLSSTLTLSKADYEKHKVYACEVTHQGLSSPVTKSFNRGEC
# notes: heterodimerized anti-glypican-3 IgG1; alteration in the GpH7-B3 chain only; also called He Ab
# B2: GpH7-A5/GpH7-B3 variant A327_06M/GpL16-k0 (antibody, human IgG1, kappa)
# heavy 1: not shown
# heavy 2: not shown
# light: B1 light
# notes: as for B1
# B3: GpH7-A5/GpH7-B3 variant P271_06M/GpL16-k0 (antibody, human IgG1, kappa)
# heavy 1: not shown
# heavy 2: not shown
# light: B1 light
# notes: as for B1
# B4: GpH7-A5/GpH7-B3 variant P271_04F/GpL16-k0 (antibody, human IgG1, kappa)
# heavy 1: not shown
# heavy 2: not shown
# light: B1 light
# notes: as for B1
# B5: GpH7-A5/GpH7-B3 variant D270_05P/GpL16-k0 (antibody, human IgG1, kappa)
# heavy 1: not shown
# heavy 2: not shown
# light: B1 light
# notes: as for B1
# B6: GpH7-A5/GpH7-B3 variant A330_20W/GpL16-k0 (antibody, human IgG1, kappa)
# heavy 1: not shown
# heavy 2: not shown
# light: B1 light
# notes: as for B1
# B7: GpH7-A5/GpH7-B3 variant I332_12R/GpL16-k0 (antibody, human IgG1, kappa)
# heavy 1: not shown
# heavy 2: not shown
# light: B1 light
# notes: as for B1
# B8: GpH7-A5/GpH7-B3 variant A330_10E/GpL16-k0 (antibody, human IgG1, kappa)
# heavy 1: not shown
# heavy 2: not shown
# light: B1 light
# notes: as for B1
# B9: GpH7-A5/GpH7-B3 variant D270_02A/GpL16-k0 (antibody, human IgG1, kappa)
# heavy 1: not shown
# heavy 2: not shown
# light: B1 light
# notes: as for B1
# B10: GpH7-A5/GpH7-B3 variant P271_16H/GpL16-k0 (antibody, human IgG1, kappa)
# heavy 1: not shown
# heavy 2: not shown
# light: B1 light
# notes: as for B1
# B11: GpH7-A5/GpH7-B3 variant D270_19Q/GpL16-k0 (antibody, human IgG1, kappa)
# heavy 1: not shown
# heavy 2: not shown
# light: B1 light
# notes: as for B1
# B12: GpH7-A5/GpH7-B3 variant D270_13S/GpL16-k0 (antibody, human IgG1, kappa)
# heavy 1: not shown
# heavy 2: not shown
# light: B1 light
# notes: as for B1
# B13: GpH7-A5/GpH7-B3 variant A330_18N/GpL16-k0 (antibody, human IgG1, kappa)
# heavy 1: not shown
# heavy 2: not shown
# light: B1 light
# notes: as for B1
# B14: GpH7-A5/GpH7-B3 variant E269_20W/GpL16-k0 (antibody, human IgG1, kappa)
# heavy 1: not shown
# heavy 2: not shown
# light: B1 light
# notes: as for B1
# B15: GpH7-A5/GpH7-B3 variant E333_07I/GpL16-k0 (antibody, human IgG1, kappa)
# heavy 1: not shown
# heavy 2: not shown
# light: B1 light
# notes: as for B1
# B16: GpH7-A5/GpH7-B3 variant A330_15Y/GpL16-k0 (antibody, human IgG1, kappa)
# heavy 1: not shown
# heavy 2: not shown
# light: B1 light
# notes: as for B1
# B17: GpH7-A5/GpH7-B3 variant A330_07I/GpL16-k0 (antibody, human IgG1, kappa)
# heavy 1: not shown
# heavy 2: not shown
# light: B1 light
# notes: as for B1
# B18: GpH7-A5/GpH7-B3 variant E333_03V/GpL16-k0 (antibody, human IgG1, kappa)
# heavy 1: not shown
# heavy 2: not shown
# light: B1 light
# notes: as for B1
# B19: GpH7-A5/GpH7-B3 variant D270_20W/GpL16-k0 (antibody, human IgG1, kappa)
# heavy 1: not shown
# heavy 2: not shown
# light: B1 light
# notes: as for B1
# B20: GpH7-A5/GpH7-B3 variant P271_15Y/GpL16-k0 (antibody, human IgG1, kappa)
# heavy 1: not shown
# heavy 2: not shown
# light: B1 light
# notes: as for B1
# B21: GpH7-A5/GpH7-B3 variant A330_08L/GpL16-k0 (antibody, human IgG1, kappa)
# heavy 1: not shown
# heavy 2: not shown
# light: B1 light
# notes: as for B1
# B22: GpH7-A5/GpH7-B3 variant A327_13S/GpL16-k0 (antibody, human IgG1, kappa)
# heavy 1: not shown
# heavy 2: not shown
# light: B1 light
# notes: as for B1
# B23: GpH7-A5/GpH7-B3 variant D270_11K/GpL16-k0 (antibody, human IgG1, kappa)
# heavy 1: not shown
# heavy 2: not shown
# light: B1 light
# notes: as for B1
# B24: GpH7-A5/GpH7-B3 variant D270_04F/GpL16-k0 (antibody, human IgG1, kappa)
# heavy 1: not shown
# heavy 2: not shown
# light: B1 light
# notes: as for B1
# B25: GpH7-A5/GpH7-B3 variant E333_05P/GpL16-k0 (antibody, human IgG1, kappa)
# heavy 1: not shown
# heavy 2: not shown
# light: B1 light
# notes: as for B1
# Target: T1, FcγRIIb extracellular domain with …
# Assay: SPR (Biacore), antibody captured on antigen peptide chip, FcγR as analyte; relative binding
row,He/Con_2b,Binder
1,74.8 % of control GpH7-A5/GpH7-B3/GpL16-k0 (=100),B1
2,59.5 % of control GpH7-A5/GpH7-B3/GpL16-k0 (=100),B2
3,77.5 % of control GpH7-A5/GpH7-B3/GpL16-k0 (=100),B3
4,59.5 % of control GpH7-A5/GpH7-B3/GpL16-k0 (=100),B4
5,13.9 % of control GpH7-A5/GpH7-B3/GpL16-k0 (=100),B5
6,76.1 % of control GpH7-A5/GpH7-B3/GpL16-k0 (=100),B6
7,48.9 % of control GpH7-A5/GpH7-B3/GpL16-k0 (=100),B7
8,70.1 % of control GpH7-A5/GpH7-B3/GpL16-k0 (=100),B8
9,48.3 % of control GpH7-A5/GpH7-B3/GpL16-k0 (=100),B9
10,67.9 % of control GpH7-A5/GpH7-B3/GpL16-k0 (=100),B10
11,48 % of control GpH7-A5/GpH7-B3/GpL16-k0 (=100),B11
12,44.2 % of control GpH7-A5/GpH7-B3/GpL16-k0 (=100),B12
13,63.7 % of control GpH7-A5/GpH7-B3/GpL16-k0 (=100),B13
14,42.5 % of control GpH7-A5/GpH7-B3/GpL16-k0 (=100),B14
15,96.2 % of control GpH7-A5/GpH7-B3/GpL16-k0 (=100),B15
16,95 % of control GpH7-A5/GpH7-B3/GpL16-k0 (=100),B16
17,67.1 % of control GpH7-A5/GpH7-B3/GpL16-k0 (=100),B17
18,93.2 % of control GpH7-A5/GpH7-B3/GpL16-k0 (=100),B18
19,34.7 % of control GpH7-A5/GpH7-B3/GpL16-k0 (=100),B19
20,52.3 % of control GpH7-A5/GpH7-B3/GpL16-k0 (=100),B20
21,70.5 % of control GpH7-A5/GpH7-B3/GpL16-k0 (=100),B21
22,79.5 % of control GpH7-A5/GpH7-B3/GpL16-k0 (=100),B22
23,20.3 % of control GpH7-A5/GpH7-B3/GpL16-k0 (=100),B23
24,53.1 % of control GpH7-A5/GpH7-B3/GpL16-k0 (=100),B24
25,97.7 % of control GpH7-A5/GpH7-B3/GpL16-k0 (=100),B25

# Target: T2, FcγRIa extracellular domain with C-terminal His tag (human, UniProt P12314 16-292)
# T2 construct: extracellular domain; soluble receptor expressed in FreeStyle293 cells, used as analyte in Biacore; also called FcgRI; 1a; not shown: His tag attached to the C terminus
# Assay: as above
# T2 sequence (P12314 16-292): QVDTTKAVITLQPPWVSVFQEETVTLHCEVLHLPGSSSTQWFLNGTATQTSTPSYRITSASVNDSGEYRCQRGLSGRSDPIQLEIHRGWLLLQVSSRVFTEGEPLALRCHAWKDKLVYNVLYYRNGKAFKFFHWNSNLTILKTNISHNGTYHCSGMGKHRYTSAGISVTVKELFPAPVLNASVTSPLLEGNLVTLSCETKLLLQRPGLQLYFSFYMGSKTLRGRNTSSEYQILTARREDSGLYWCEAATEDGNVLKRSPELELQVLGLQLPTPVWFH
row,He/Con_1a,Binder
1,102 % of control GpH7-A5/GpH7-B3/GpL16-k0 (=100),B1
2,103 % of control GpH7-A5/GpH7-B3/GpL16-k0 (=100),B2
3,102 % of control GpH7-A5/GpH7-B3/GpL16-k0 (=100),B3
4,102 % of control GpH7-A5/GpH7-B3/GpL16-k0 (=100),B4
5,67.1 % of control GpH7-A5/GpH7-B3/GpL16-k0 (=100),B5
6,108 % of control GpH7-A5/GpH7-B3/GpL16-k0 (=100),B6
7,100 % of control GpH7-A5/GpH7-B3/GpL16-k0 (=100),B7
8,107 % of control GpH7-A5/GpH7-B3/GpL16-k0 (=100),B8
9,71.5 % of control GpH7-A5/GpH7-B3/GpL16-k0 (=100),B9
10,102 % of control GpH7-A5/GpH7-B3/GpL16-k0 (=100),B10
11,78.2 % of control GpH7-A5/GpH7-B3/GpL16-k0 (=100),B11
12,75.3 % of control GpH7-A5/GpH7-B3/GpL16-k0 (=100),B12
13,106 % of control GpH7-A5/GpH7-B3/GpL16-k0 (=100),B13
14,105 % of control GpH7-A5/GpH7-B3/GpL16-k0 (=100),B14
15,102 % of control GpH7-A5/GpH7-B3/GpL16-k0 (=100),B15
16,105 % of control GpH7-A5/GpH7-B3/GpL16-k0 (=100),B16
17,105 % of control GpH7-A5/GpH7-B3/GpL16-k0 (=100),B17
18,105 % of control GpH7-A5/GpH7-B3/GpL16-k0 (=100),B18
19,68 % of control GpH7-A5/GpH7-B3/GpL16-k0 (=100),B19
20,103 % of control GpH7-A5/GpH7-B3/GpL16-k0 (=100),B20
21,107 % of control GpH7-A5/GpH7-B3/GpL16-k0 (=100),B21
22,102 % of control GpH7-A5/GpH7-B3/GpL16-k0 (=100),B22
23,58.4 % of control GpH7-A5/GpH7-B3/GpL16-k0 (=100),B23
24,78.1 % of control GpH7-A5/GpH7-B3/GpL16-k0 (=100),B24
25,102 % of control GpH7-A5/GpH7-B3/GpL16-k0 (=100),B25
